Measured values: paper PMC5712524, “Mechanism of early light signaling by the carboxy-terminal output module of Arabidopsis phytochrome B” (Nature Communications, 2017)
Each block holds one binder with its values, some of them ahead of it.

Tests used:
GST-PIF3 [1] = target: T1, GST-PIF3 (Arabidopsis, UniProt O80536 1-524); test: pull-down; GST pull-down: immobilized GST-PIF3 pulls down HA-tagged PHYB in the Pr form; anti-HA immunoblot; procedure as ref. 33; details: one partner purified
T1 construct: the construct is not described here
T1 sequence (looked up): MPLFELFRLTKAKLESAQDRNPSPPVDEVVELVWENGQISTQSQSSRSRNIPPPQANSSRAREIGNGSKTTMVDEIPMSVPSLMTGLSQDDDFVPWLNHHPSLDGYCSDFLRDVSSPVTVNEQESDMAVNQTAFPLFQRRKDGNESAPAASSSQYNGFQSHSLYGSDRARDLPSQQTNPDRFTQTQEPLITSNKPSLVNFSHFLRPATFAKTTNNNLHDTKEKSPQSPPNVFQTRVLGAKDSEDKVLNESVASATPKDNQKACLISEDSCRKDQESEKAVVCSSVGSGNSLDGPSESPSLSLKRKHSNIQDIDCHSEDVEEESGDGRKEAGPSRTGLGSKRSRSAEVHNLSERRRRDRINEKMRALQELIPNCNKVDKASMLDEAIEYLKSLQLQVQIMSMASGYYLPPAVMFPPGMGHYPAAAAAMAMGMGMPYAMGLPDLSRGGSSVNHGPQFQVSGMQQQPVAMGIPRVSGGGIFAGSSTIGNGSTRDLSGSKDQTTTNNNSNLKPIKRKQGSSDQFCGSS

[2] = target: the molecule itself; test: co-IP; in vitro co-immunoprecipitation: HA-tagged bait and Myc-tagged prey co-expressed in TNT T7 reticulocyte lysate, anti-HA Affinity Matrix, E buffer (50 mM Tris-HCl pH 7.5, 100 mM NaCl, 1 mM EDTA, 1 mM EGTA, 1% DMSO, 2 mM DTT, 0.1% Nonidet P-40), 4 °C 2 h; anti-Myc immunoblot
GST-PIF3 [3] = target: T1, GST-PIF3; test: pull-down; GST pull-down: immobilized GST-PIF3 pulls down HA-tagged PHYB as apoprotein; anti-HA immunoblot; procedure as ref. 33; details: one partner purified

interaction relative to that of PHYB-HA (GST-PIF3 [1]): ~0.33 fraction of wild type
B1: PHYB18-HA (PHYB D1040V), Pr or Pfr form (natural protein, Arabidopsis, UniProt P14713 1-1172, looked up)
chain: MVSGVGGSGGGRGGGRGGEEEPSSSHTPNNRRGGEQAQSSGTKSLRPRSNTESMSKAIQQYTVDARLHAVFEQSGESGKSFDYSQSLKTTTYGSSVPEQQITAYLSRIQRGGYIQPFGCMIAVDESSFRIIGYSENAREMLGIMPQSVPTLEKPEILAMGTDVRSLFTSSSSILLERAFVAREITLLNPVWIHSKNTGKPFYAILHRIDVGVVIDLEPARTEDPALSIAGAVQSQKLAVRAISQLQALPGGDIKLLCDTVVESVRDLTGYDRVMVYKFHEDEHGEVVAESKRDDLEPYIGLHYPATDIPQASRFLFKQNRVRMIVDCNATPVLVVQDDRLTQSMCLVGSTLRAPHGCHSQYMANMGSIASLAMAVIINGNEDDGSNVASGRSSMRLWGLVVCHHTSSRCIPFPLRYACEFLMQAFGLQLNMELQLALQMSEKRVLRTQTLLCDMLLRDSPAGIVTQSPSIMDLVKCDGAAFLYHGKYYPLGVAPSEVQIKDVVEWLLANHADSTGLSTDSLGDAGYPGAAALGDAVCGMAVAYITKRDFLFWFRSHTAKEIKWGGAKHHPEDKDDGQRMHPRSSFQAFLEVVKSRSQPWETAEMDAIHSLQLILRDSFKESEAAMNSKVVDGVVQPCRDMAGEQGIDELGAVAREMVRLIETATVPIFAVDAGGCINGWNAKIAELTGLSVEEAMGKSLVSDLIYKENEATVNKLLSRALRGDEEKNVEVKLKTFSPELQGKAVFVVVNACSSKDYLNNIVGVCFVGQDVTSQKIVMDKFINIQGDYKAIVHSPNPLIPPIFAADENTCCLEWNMAMEKLTGWSRSEVIGKMIVGEVFGSCCMLKGPDALTKFMIVLHNAIGGQDTDKFPFPFFDRNGKFVQALLTANKRVSLEGKVIGAFCFLQIPSPELQQALAVQRRQDTECFTKAKELAYICQVIKNPLSGMRFANSLLEATDLNEDQKQLLETSVSCEKQISRIVGDMDLESIEDGSFVLKREEFFLGSVINAIVSQAMFLLRDRGLQLIRDIPEEIKSIEVFGVQIRIQQLLAEFLLSIIRYAPSQEWVEIHLSQLSKQMADGFAAIRTEFRMACPGEGLPPELVRDMFHSSRWTSPEGLGLSVCRKILKLMNGEVQYIRESERSYFLIILELPVPRKRPLSTASGSGDMMLMMPY
modifications: Pr or Pfr form (chromophore used not named for this experiment)
notes: Same chain as m21, with chromophore; not shown: HA, C-terminal, kept

B2: full-length PHYB18 (PHYB D1040V), N-terminal HA- or Myc-tagged (natural protein, Arabidopsis, UniProt P14713 1-1172, looked up)
chain: B1 chain
notes: Two differently tagged copies: the bait copy has the HA tag, the prey copy the Myc tag (each copy has one tag only); also called HA-PHYB18; Myc-PHYB18; source: in vitro translated (TNT T7 Coupled Reticulocyte Lysate System), co-expressed; not shown: HA, N-terminal, kept; Myc, N-terminal, kept
fold reduction of the interaction against wild-type PHYB [2]: 5 fold

interaction relative to that of PHYB-HA (GST-PIF3 [3]): ~0.33 fraction of wild type
B3: PHYB18-HA (PHYB D1040V), apoprotein (natural protein, Arabidopsis, UniProt P14713 1-1172, looked up)
chain: B1 chain
notes: not shown: HA, C-terminal, kept
